For assay [1], the system named is purified recombinant human LOXL2. Briefly: Amplex Red assay of LOXL2 enzymatic activity. It counts as biochemical. Here is the method: A mouse anti-human LOXL2 antibody (AB0023) was obtained by immunization with full-length LOXL2 protein and purified by SEC-HPLC (Tosoh TSKGEL G3000SWXL 7.8×300). Analytical size exclusion chromatography was used to assess antibody stability and purity. Purified AB0023 was run on SDS-PAGE Coomassie (Invitrogen BT 4-12% Gels) reducing and non-reducing gels to assess purity. Potency was examined by ELISA to determine Kd, and effect on LOXL2 enzymatic activity was determined using an Amplex Red Assay (Molecular Probes/Invitrogen, Carlsbad, Calif.). Antibody concentration was measured by absorbance at 280 nm using an Extinction Coefficient Abs 0.1% of 1.4. Identity was assayed by isoelectric focusing (Invitrogen pH 3-10 IEF Gels). For safety analysis, endotoxin levels were measured at a sensitivity range of 0.01-1 EU/ml (Charles River EndoSafe PTS).
purified recombinant human LOXL2, sequence (Q9Y4K0 318-774 limits assumed): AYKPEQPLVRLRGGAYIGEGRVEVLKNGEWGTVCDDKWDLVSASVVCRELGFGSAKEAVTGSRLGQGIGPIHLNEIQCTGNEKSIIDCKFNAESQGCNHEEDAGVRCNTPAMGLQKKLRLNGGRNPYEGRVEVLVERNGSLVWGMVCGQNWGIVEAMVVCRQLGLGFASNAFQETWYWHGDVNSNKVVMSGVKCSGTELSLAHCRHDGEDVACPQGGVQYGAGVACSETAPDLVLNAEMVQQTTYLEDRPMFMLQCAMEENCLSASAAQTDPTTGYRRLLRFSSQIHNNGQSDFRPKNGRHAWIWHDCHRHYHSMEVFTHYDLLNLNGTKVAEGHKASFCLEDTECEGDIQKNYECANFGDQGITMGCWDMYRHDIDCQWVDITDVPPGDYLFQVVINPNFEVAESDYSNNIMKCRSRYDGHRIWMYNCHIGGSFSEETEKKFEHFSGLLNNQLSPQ

In assay [2] the test system is human umbilical vein endothelial cells (HUVEC). Briefly: In vitro HUVEC tube formation assay. To be noted: for IC50: CD31 staining, day 11. It is filed as cell-based. Here is the method:
Human umbilical vein endothelial cells (HUVECs) were plated on a feeder layer of fibroblasts and cultured in 24-well plates in Lonza EBM-2 medium (a basal medium developed for normal human endothelial cells in a low-serum environment) supplemented with hEGF, Hydrocortisone, GA-1000 (Gentamicin, Amphotericin-B), FBS (Fetal Bovine Serum) 10 ml (2% final), VEGF, hFGF-B, R3-IGF-1, Ascorbic Acid and heparin. […] At this point (day 1), 0.5 ml of fresh endothelial cell growth medium containing no additions (control), anti-LOXL2 antibody AB0023, or suramin was added to the wells. The plate was then cultured at 37° C. and 5% CO2. On days 4, 7 and 9 the medium was removed from all wells and carefully replaced with 0.5 ml of fresh medium containing the additions listed above. On day 11, the plates were fixed and tubules were assayed for CD31 expression as follows. Wells were washed with 1 ml PBS and fixed with 1 ml ice cold 70% ethanol for 30 minutes at room temperature. Cells were then incubated, for 60 minutes at 37° C., with 0.5 ml mouse anti-human CD31 antibody diluted 1:400 in PBS containing 1% BSA. Wells were then washed three times with 1 ml PBS, followed by incubation for 60 minutes at 37° C. with 0.5 ml alkaline phosphatase-conjugated goat anti-mouse IgG secondary antibody diluted 1:500 in PBS containing 1% BSA. Wells were washed a further three times with 1 ml PBS prior to incubation for 10 minutes at 37° C. with 0.5 ml freshly prepared and filtered BCIP/NBT substrate. Wells were then carefully washed three times with 1 ml distilled water and left to air dry overnight.
Digital images of each well were taken using a Nikon Coolpix camera on a Leica inverted microscope at 10× magnification. Four random fields per well were imaged, producing 96 images in total. Images were then converted to BMP files and imported into an image analysis package to measure number of vessel branches, number of vessels and total vessel length. […]

Assay [3] has as its system MDA-MB-435 established primary tumors. Briefly: MDA-MB-435 established primary tumor xenograft model. It counts as in vivo, mouse. On the set-up: reduction in activated TAFs assessed by aSMA signal / reduction in VEGF signal versus vehicle-treated tumors / reduction in SDF-1/CXCL12 signal / reduction in LOXL2 signal: concentration or dose not given beside the values. Here is the method: To provide growing tumor tissue stock for subsequent orthotopic implantation, five- to six-week-old nude mice (NCr nu/nu) were injected subcutaneously with 2×10^6 MDA-MB-435-GFP cells (Anticancer, Inc., San Diego, Calif.) on the right flank. For this purpose, cultures of MDA-MB-435-GFP cells were harvested and dissociated by trypsinization, washed three times with cold serum-containing medium, and then kept on ice until injection. Cells were injected into the subcutaneous space of the flank of the animal in a total volume of 0.1 ml, within 30 min of harvesting. The nude mice were sacrificed to harvest tumor tissue 4 to 6 weeks after tumor cell injection for surgical orthotopic implantation (SOI) of tumor fragments.
Tumor pieces (˜1 mm^3), extracted from subcutaneously-growing GFP-expressing breast tumors, were implanted by surgical orthotopic implantation (SOI) on the breast of female nude mice (NCr nu/nu). Treatments with AB0023 (anti-LOXL2 monoclonal antibody), M64 (anti-LOX monoclonal antibody) and vehicle (all via intraperitoneal injection) and with Taxotere (by intravenous injection) were initiated when the average primary tumor volume reached 75 mm^3. Mice were administered the antibodies at a dose of 30 mg/kg twice a week for 28 days and Taxotere, at 10 mg/kg, was administered once a week for 3 weeks.
Body weight and tumor size were recorded weekly. At the conclusion of the study, mice were sacrificed by cervical dislocation after being anesthetized with carbon dioxide. Primary breast tumors were imaged, harvested, cut in half symmetrically and snap-frozen for histological and immunohistochemical analyses.
The solutions used for the immunohistochemistry (IHC) protocols were obtained from Biocare Medical (Concord, Calif.) unless otherwise stated. All procedures were performed at room temperature. Slides were fixed with 4% PFA for 10 minutes and were subsequently treated with Peroxidazed-1 (Biocare Medical, Concord, Calif.) for 5 minutes. Then, the slides were background blocked with SNIPER (Biocare Medical, Concord, Calif.) for 10 minutes. Primary antibody (2-5 ug/ml final concentration) was diluted in Da Vinci Green Universal Diluent and applied to slides for 30 minutes. Slides were then rinsed in PBS-Tween-20. The Mach2 polymer kit was used for antigen detection by adding rabbit probe for 30 minutes. DAB chromagen was added to the slides for 3-5 minutes, then slides were rinsed once with deionized water. The slides were then counter-stained with hematoxylin, followed by dehydration with graded alcohol. The slides were mounted with entellan mounting medium (Electron Microscopy Sciences, Hatfield, Pa.).

Assay [4] has as its system fibroblasts or tumor cell lines. As to the kind of experiment: Short-term growth factor signaling (TGFb, PDGF-BB) with or without AB0023. It is filed as cell-based.
[5] abbreviates: antibodies 30 mg/kg i.p. twice a week.
The mark [6] stands for this setting: tissue-based ELISA, fibroblasts and tumor cells.

The results in this text go back to patent US20110076272A1, “THERAPEUTIC METHODS AND COMPOSITIONS” (priority 2009, published 2011).

Where two headings read alike, the source gives them in different places.

B1: AB0023: mouse anti-human LOXL2 monoclonal antibody; heavy chain variable region SEQ ID NO:1, light chain variable region SEQ ID NO:2 (antibody, listed as Mus musculus, V domains shown)
VH: MEWSRVFIFLLSVTAGVHSQVQLQQSGAELVRPGTSVKVSCKASGYAFTYYLIEWVKQRPGQGLEWIGVINPGSGGTNYNEKFKGKATLTADKSSSTAYMQLSSLTSDDSAVYFCARNWMNFDYWGQGTTLTVSS
VL: MRCLAEFLGLLVLWIPGAIGDIVMTQAAPSVSVTPGESVSISCRSSKSLLHSNGNTYLYWFLQRPGQSPQFLIYRMSNLASGVPDRFSGSGSGTAFTLRISRVEAEDVGVYYCMQHLEYPYTFGGGTKLEIK
modifications: Heavy chain; Light chain
In the case of B1, in assay [1], the “mode of inhibition of LOXL2” value was “non-competitive allosteric inhibitors”. The “inhibition of LOXL2 enzymatic activity” value in assay [1] (in vitro) is given as “inhibits”. Besides, the “inhibition of vessel branching, vessel length and total number of vessels” value in assay [2] (50 ug/ml) is given as “complete inhibition”. The half-inhibitory concentration (IC50) – broadly, the midpoint of a concentration-inhibition curve – in assay [2] (read-out: IC50 for inhibition of number of vessels (FIG. 4 Panel H)) was found to be 19.9 nM. Moreover, the IC50 in assay [2] (read-out: IC50 for inhibition of vessel branching (mean number of branching points, FIG. 4 Panel G)) worked out at 22.2 nM. Also, the “abundance of fibroblasts in tumors versus vehicle” value in assay [3] (H&E staining and other markers) is listed as “less abundant overall”. In assay [3] (H&E, TNF-α IHC), the necrosis in tumors entry is on record as “significant regions of necrosis”. Also, in assay [3] (IHC of tumors), the “reduction in LOXL2 signal” value is 55%, the “reduction in SDF-1/CXCL12 signal” value is recorded as 80% and the “reduction in VEGF signal versus vehicle-treated tumors” value is given as 76%. Moreover, in assay [3] (setting [5]), the “decrease in tumor volume at week 3” value was found to be 45% and the “decrease in tumor volume at week 5” value came to 33%. In assay [3] (mouse, in vivo), the “levels of Beclin-1 (autophagy) in tumor cells” value is “increased”; the “pyknosis, reduced viability of tumor cells” value was “pyknosis and increased cytoplasmic condensation of nuclei”. In addition, in assay [3] (setting [6]), the “levels of TGF-β1” value is given as “reduced” and the “levels of phosphorylated SMAD2” value is listed as “reduced”. Further, in assay [3] (tumor tissue), the “levels of connective tissue growth factor (CTGF)” value is listed as “reduced”. In assay [3] (tumors harvested at day 39), the “reduction in Sirius red staining (crosslinked collagen, desmoplasia)” value was 61%; the “reduction in activated TAFs assessed by aSMA signal” value is given as 88%; the “reduction in tumor vasculature, CD31 signal” value came out at 74%. In addition, the “inhibition of SMAD2 phosphorylation (TGFb signaling)” value in assay [4] (10-60 minute time frame) is reported as 10-20%. Besides, in assay [4] (PDGF-BB, 10-60 minute time periods), the “effect on AKT phosphorylation” value is listed as “No significant effects”.
